{"source": "patent US20120082622A1", "about": "(Janssen / Centocor, published 2012)", "biological_target": "T1, CCR4 endogenously expressed on CCRF-CEM cells (UniProt P51679 1-360, limits assumed)", "T1 sequence (looked up)": "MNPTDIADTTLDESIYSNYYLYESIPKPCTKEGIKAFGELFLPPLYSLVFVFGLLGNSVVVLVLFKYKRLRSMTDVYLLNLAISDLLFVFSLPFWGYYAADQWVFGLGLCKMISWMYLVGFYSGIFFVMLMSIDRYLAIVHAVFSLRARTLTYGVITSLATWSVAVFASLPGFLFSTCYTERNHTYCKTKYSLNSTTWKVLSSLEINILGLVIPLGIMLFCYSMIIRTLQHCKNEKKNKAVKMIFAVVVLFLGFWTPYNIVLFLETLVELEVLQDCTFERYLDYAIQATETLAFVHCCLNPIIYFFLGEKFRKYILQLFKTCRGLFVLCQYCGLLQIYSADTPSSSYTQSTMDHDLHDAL", "assay": "cell-based or functional assay"}
{"binder": "mature Macaca fascicularis CCL17 (cynoCCL17), refolded from E. coli inclusion bodies (ligand) ARGTNVGRECCLKYFKGAIPLRKLKTWYQTSEDCSRDAIVFVTVQNKAICSDPNDKKVKKALKYLQSL", "values": [{"measurement": "calcium flux of CCRF-CEM cells (Fluo-8 NW dye fluorescence), EC50", "value": 0.665, "unit": "ng/mL"}]}
